The nature of one series: Lipid moisture level. Type of series: physicochemical. Particulars: after vacuum at room temperature for 48 hours. Here is the method: The moisture level of the lipid, e.g., DOPC, […], or DMPC, is measured after vacuum at room temperature for 48 hours. Lipid vehicles with lower moisture level can be included in viscous liquid compositions.
A short description of series [1]: ω-Interferon solubility in non-aqueous liquid solvents. The class given is physicochemical. The source says:
Thirteen non-aqueous liquid solvent candidates were identified to develop a solution formulation or a suspension formulation based on solubility of ω-interferon. The solvents at the top, e.g., lauryl lactate, are potential suspension solvents. The character of the solvents changes to potential solution solvents in combination with ω-interferon, e.g., glycerol formal, benzyl benzoate, DMSO, or glycerin.

The mark [2] stands for this setting: solvent 1:1 benzyl benzoate:benzyl alcohol, expected conc 10.00 mg/ml.
The mark [3] stands for this setting: solvent NMP, expected conc 25.00 mg/ml.
Where [4] appears, read: solvent PEG 400, expected conc 25.00 mg/ml.
Setting [5] is: solvent benzyl alcohol, expected conc 10.00 mg/ml.
The mark [6] stands for this setting: solvent ethanol, expected conc 25.00 mg/ml.
[7] abbreviates: solvent ethyl hexyl lactate, expected conc 10.00 mg/ml.

On to `CCCCCCCC/C=C\CCCCCCCC(=O)OC[C@H](COP(=O)([O-])OCC[N+](C)(C)C)OC(=O)CCCCCCC/C=C\CCCCCCCC` [DOPC, 1,2-Dioleoyl-sn-glycero-3-phosphatidylcholine], for which, in the series “Lipid moisture level”, the “Avg. Moisture” value is reported as 0.6 ± 0.2%.

For the compound ω-interferon, in series [1] (in the solvents that were combined with DOPC to form suspensions), the solubility result is listed as “less than 0.1 mg/mL”. Further, the “Concentration by SEC” value in series [1] (setting [2]), in series [1] (setting [3]), in series [1] (setting [4]), in series [1] (setting [5]), in series [1] (setting [6]) and in series [1] (setting [7]) was 0 ng/mL in each case. Also, the “Concentration by UV” value was <100 µg/mL in series [1] (setting [2]); <100 µg/mL in series [1] (setting [3]); <100 µg/mL in series [1] (setting [4]); 140 µg/mL in series [1] (setting [5]); <100 µg/mL in series [1] (setting [6]); 370 µg/mL in series [1] (setting [7]). The “Concentration by UV” value in series [1] (solvent lauryl alcohol, expected conc 10.00 mg/ml) was <100 µg/mL; in series [1] (solvent lauryl lactate, expected conc 10.00 mg/ml), <100 µg/mL. The “Concentration by rp-HPLC” value in series [1] (setting [2]), in series [1] (setting [3]), in series [1] (setting [4]), in series [1] (setting [5]), in series [1] (setting [6]) and in series [1] (setting [7]) was 0.00 in each case.

As to `CCCCCCCCCCCCCC(=O)OC[C@H](COP(=O)([O-])OCC[N+](C)(C)C)OC(=O)CCCCCCCCCCCCC` [DMPC, dimyristoylphosphatidylcholine], the “Avg. Moisture” value in “Lipid moisture level” is given as 0.6%.

The values are drawn from US8398967B2, “Particle formulations for use in pharmaceutical compositions” (Intarcia Therapeutics, Inc., priority 2002, dated 2013).
